In US20230140797A1 (published 2023):
Each block holds one binder with its values, some of them ahead of it.

What was measured:
[1] = biological target: T1, human FcγRIIa type R extracellular domain with C-terminal His tag (human, UniProt P12318 34-217); assay: SPR
T1 sequence (looked up): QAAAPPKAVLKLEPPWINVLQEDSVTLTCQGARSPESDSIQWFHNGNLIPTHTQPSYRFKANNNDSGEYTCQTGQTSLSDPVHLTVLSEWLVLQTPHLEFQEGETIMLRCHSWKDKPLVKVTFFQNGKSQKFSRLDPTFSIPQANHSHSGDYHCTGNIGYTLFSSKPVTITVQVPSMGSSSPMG

[2] = biological target: T2, human FcγRIIb extracellular domain with C-terminal His tag (human, UniProt P31994 43-217); assay: ratio of SPR KDs
T2 sequence (looked up): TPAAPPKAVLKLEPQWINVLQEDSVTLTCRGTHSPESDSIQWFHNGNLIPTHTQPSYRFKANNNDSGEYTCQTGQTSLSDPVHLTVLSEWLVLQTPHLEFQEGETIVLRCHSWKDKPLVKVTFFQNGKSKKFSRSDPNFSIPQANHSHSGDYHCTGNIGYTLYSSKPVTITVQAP

[3] = biological target: T2, human FcγRIIb extracellular domain with …; assay: ratio of SPR KDs; remark: listed apart in the source
[4] = biological target: human FcγRIa extracellular domain with C-terminal His tag (human, UniProt P12314 16-292); assay: SPR
[5] = biological target: T3, human FcγRIIa type H (131His) extracellular domain with C-terminal His tag (human, UniProt P12318 34-217); assay: SPR
T3 sequence (looked up): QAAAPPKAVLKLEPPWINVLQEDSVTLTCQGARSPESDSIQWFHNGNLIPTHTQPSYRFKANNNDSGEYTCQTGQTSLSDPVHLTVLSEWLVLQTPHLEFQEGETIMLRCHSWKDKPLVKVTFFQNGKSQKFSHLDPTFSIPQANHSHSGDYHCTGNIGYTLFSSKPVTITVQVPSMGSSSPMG

[6] = biological target: T2, human FcγRIIb extracellular domain with …; assay: ratio of SPR KDs; remark: listed apart in the source
[7] = biological target: T4, human FcγRIIb extracellular domain with C-terminal His tag (human, UniProt P31994 43-217); assay: SPR
T4 sequence (looked up): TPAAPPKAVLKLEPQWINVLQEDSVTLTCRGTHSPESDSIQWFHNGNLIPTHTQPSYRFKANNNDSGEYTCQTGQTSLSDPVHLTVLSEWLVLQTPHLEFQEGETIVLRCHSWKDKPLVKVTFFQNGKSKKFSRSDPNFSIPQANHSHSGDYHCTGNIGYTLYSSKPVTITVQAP

[8] = biological target: T4, human FcγRIIb extracellular domain with …; assay: SPR; remark: listed apart in the source
[9] = biological target: human FcγRIIIa type V extracellular domain with C-terminal His tag (human, UniProt P08637 17-208); assay: SPR
human FcγRIIIa type V extracellular domain with C-terminal His tag, sequence (P08637 17-208 F176V): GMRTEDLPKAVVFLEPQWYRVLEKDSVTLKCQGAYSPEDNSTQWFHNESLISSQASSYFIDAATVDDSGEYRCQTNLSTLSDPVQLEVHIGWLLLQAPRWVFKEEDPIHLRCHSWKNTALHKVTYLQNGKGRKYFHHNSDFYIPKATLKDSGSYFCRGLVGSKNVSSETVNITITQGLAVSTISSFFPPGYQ

human FcγRIa extracellular domain with C-terminal His tag, sequence (P12314 16-292): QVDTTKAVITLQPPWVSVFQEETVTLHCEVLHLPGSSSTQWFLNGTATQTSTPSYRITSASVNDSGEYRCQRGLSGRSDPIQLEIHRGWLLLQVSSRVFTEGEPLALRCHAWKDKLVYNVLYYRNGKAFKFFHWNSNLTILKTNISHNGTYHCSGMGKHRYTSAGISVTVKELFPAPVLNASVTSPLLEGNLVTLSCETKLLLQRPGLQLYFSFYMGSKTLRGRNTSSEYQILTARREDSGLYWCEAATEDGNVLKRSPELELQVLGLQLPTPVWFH

KD (IIaR)/KD (IIb) [2]: 30.3
KD (IIb) of parent polypeptide/KD (IIb) of altered polypeptide [3]: 1870
B2: IL6R-BP498/IL6R-L (antibody, human IgG1, kappa)
heavy: QVQLQESGPGLVKPSETLSLTCAVSGHSISHDHAWSWVRQPPGEGLEWIGFISYSGITNYNPSLQGRVTISRDNSKNTLYLQMNSLRAEDTAVYYCARSLARTTAMDYWGEGTLVTVSSASTKGPSVFPLAPSSKSTSGGTAALGCLVKDYFPEPVTVSWNSGALTSGVHTFPAVLQSSGLYSLSSVVTVPSSSLGTQTYICNVNHKPSNTKVDKKVEPKSCDKTHTCPPCPAPDLLGDDSVFLFPPKPKDTLMISRTPEVTCVVIDVAEEDGEVKFNWYVDGVEVHNAKTKPREEQYNSTYRVVSVLTVLHQDWLNGKEYKCKVSNKALPRPIEKTISKAKGQPREPQVYTLPPSRDELTKNQVSLTCLVKGFYPSDIAVEWESNGQPENNYKTTPLVLDSDGSFFLYSKLTVDKSRWQQGNVFSCSVMHEALHNHYTQESLSLSP
light: not shown

KD (IIb) of parent polypeptide/KD (IIb) of altered polypeptide [3]: 166
B3: IL6R-BP496/IL6R-L (antibody, human IgG1, kappa)
heavy: QVQLQESGPGLVKPSETLSLTCAVSGHSISHDHAWSWVRQPPGEGLEWIGFISYSGITNYNPSLQGRVTISRDNSKNTLYLQMNSLRAEDTAVYYCARSLARTTAMDYWGEGTLVTVSSASTKGPSVFPLAPSSKSTSGGTAALGCLVKDYFPEPVTVSWNSGALTSGVHTFPAVLQSSGLYSLSSVVTVPSSSLGTQTYICNVNHKPSNTKVDKKVEPKSCDKTHTCPPCPAPDLLGDDSVFLFPPKPKDTLMISRTPEVTCVVIDVAEEDGEVKFNWYVDGVEVHNAKTKPREEQDNSTYRVVSVLTVLHQDWLNGKEYKCKVSNKALPAPIEKTISKAKGQPREPQVYTLPPSRDELTKNQVSLTCLVKGFYPSDIAVEWESNGQPENNYKTTPPVLDSDGSFFLYSKLTVDKSRWQQGNVFSCSVMHEALHNHYTQESLSLSP
light: not shown

Kd [4]: 0.0011 µM
B5: IL6R-BP535/IL6R-L (antibody, human IgG1, kappa)
heavy: QVQLQESGPGLVKPSETLSLTCAVSGHSISHDHAWSWVRQPPGEGLEWIGFISYSGITNYNPSLQGRVTISRDNSKNTLYLQMNSLRAEDTAVYYCARSLARTTAMDYWGEGTLVTVSSASTKGPSVFPLAPSSKSTSGGTAALGCLVKDYFPEPVTVSWNSGALTSGVHTFPAVLQSSGLYSLSSVVTVPSSSLGTQTYICNVNHKPSNTKVDKKVEPKSCDKTHTCPPCPAPDLLGDDSVFLFPPKPKDTLMISRTPEVTCVVIDVGEEDGEVKFNWYVDGVEVHNAKTKPREEQDNSTYRVVSVLTVLHQDWLNGKEYKCKVSNKGLPRPIEKTISKAKGQPREPQVYTLPPSRDELTKNQVSLTCLVKGFYPSDIAVEWESNGQPENNYKTTPMVLDSDGSFFLYSKLTVDKSRWQQGNVFSCSVMHEALHNHYTQESLSLSP
light: not shown

Kd [4]: 0.049 µM
KD (IIaH)/KD (IIb) [7]: 692
KD (IIaR)/KD (IIb) [8]: 35.4
B8: IL6R-BP556/IL6R-L (antibody, human IgG1, kappa)
heavy: QVQLQESGPGLVKPSETLSLTCAVSGHSISHDHAWSWVRQPPGEGLEWIGFISYSGITNYNPSLQGRVTISRDNSKNTLYLQMNSLRAEDTAVYYCARSLARTTAMDYWGEGTLVTVSSASTKGPSVFPLAPSSKSTSGGTAALGCLVKDYFPEPVTVSWNSGALTSGVHTFPAVLQSSGLYSLSSVVTVPSSSLGTQTYICNVNHKPSNTKVDKKVEPKSCDKTHTCPPCPAPELLGDDSVFLFPPKPKDTLMISRTPEVTCVVIDVGEEDGEVKFNWYVDGVEVHNAKTKPREEQDNSTYRVVSVLTVLHQDWLNGKEYKCKVSNKALPRPIEKTISKAKGQPREPQVYTLPPSRDELTKNQVSLTCLVKGFYPSDIAVEWESNGQPENNYKTTPPVLDSDGSFFLYSKLTVDKSRWQQGNVFSCSVMHEALHNHYTQESLSLSP
light: not shown

Further lines, the binder ahead of its results:

B1: IL6R-BP132/IL6R-L (antibody, human IgG1, kappa)
heavy: QVQLQESGPGLVKPSETLSLTCAVSGHSISHDHAWSWVRQPPGEGLEWIGFISYSGITNYNPSLQGRVTISRDNSKNTLYLQMNSLRAEDTAVYYCARSLARTTAMDYWGEGTLVTVSSASTKGPSVFPLAPSSKSTSGGTAALGCLVKDYFPEPVTVSWNSGALTSGVHTFPAVLQSSGLYSLSSVVTVPSSSLGTQTYICNVNHKPSNTKVDKKVEPKSCDKTHTCPPCPAPDLLGGDSVFLFPPKPKDTLMISRTPEVTCVVVDVSHEDPEVKFNWYVDGVEVHNAKTKPREEQYNSTYRVVSVLTVLHQDWLNGKEYKCKVSNAALPKPIEKTISKAKGQPREPQVYTLPPSRDELTKNQVSLTCLVKGFYPSDIAVEWESNGQPENNYKTTPPVLDSDGSFFLYSKLTVDKSRWQQGNVFSCSVMHEALHNHYTQESLSLSP
light: not shown
Kd [1]: 80 µM

B4: IL6R-BP491/IL6R-L (antibody, human IgG1, kappa)
heavy: QVQLQESGPGLVKPSETLSLTCAVSGHSISHDHAWSWVRQPPGEGLEWIGFISYSGITNYNPSLQGRVTISRDNSKNTLYLQMNSLRAEDTAVYYCARSLARTTAMDYWGEGTLVTVSSASTKGPSVFPLAPSSKSTSGGTAALGCLVKDYFPEPVTVSWNSGALTSGVHTFPAVLQSSGLYSLSSVVTVPSSSLGTQTYICNVNHKPSNTKVDKKVEPKSCDKTHTCPPCPAPELLGDDSVFLFPPKPKDTLMISRTPEVTCVVIDVAEEDGEVKFNWYVDGVEVHNAKTKPREEQDNSTYRVVSVLTVLHQDWLNGKEYKCKVSNKALPRPIEKTISKAKGQPREPQVYTLPPSRDELTKNQVSLTCLVKGFYPSDIAVEWESNGQPENNYKTTPPVLDSDGSFFLYSKLTVDKSRWQQGNVFSCSVMHEALHNHYTQESLSLSP
light: not shown
KD (IIaR)/KD (IIb) [2]: 38.3
KD (IIb) of parent polypeptide/KD (IIb) of altered polypeptide [3]: 1020

B6: IL6R-BP488/IL6R-L (antibody, human IgG1, kappa)
heavy: QVQLQESGPGLVKPSETLSLTCAVSGHSISHDHAWSWVRQPPGEGLEWIGFISYSGITNYNPSLQGRVTISRDNSKNTLYLQMNSLRAEDTAVYYCARSLARTTAMDYWGEGTLVTVSSASTKGPSVFPLAPSSKSTSGGTAALGCLVKDYFPEPVTVSWNSGALTSGVHTFPAVLQSSGLYSLSSVVTVPSSSLGTQTYICNVNHKPSNTKVDKKVEPKSCDKTHTCPPCPAPDLLGDDSVFLFPPKPKDTLMISRTPEVTCVVIDVAEEDGEVKFNWYVDGVEVHNAKTKPREEQDNSTYRVVSVLTVLHQDWLNGKEYKCKVSNKALPRPIEKTISKAKGQPREPQVYTLPPSRDELTKNQVSLTCLVKGFYPSDIAVEWESNGQPENNYKTTPPVLDSDGSFFLYSKLTVDKSRWQQGNVFSCSVMHEALHNHYTQESLSLSP
light: not shown
Kd [5]: 1.8 µM
KD (IIaH)/KD (IIb) [6]: 865

B7: IL6R-BP149/IL6R-L (antibody, human IgG1, kappa)
heavy: QVQLQESGPGLVKPSETLSLTCAVSGHSISHDHAWSWVRQPPGEGLEWIGFISYSGITNYNPSLQGRVTISRDNSKNTLYLQMNSLRAEDTAVYYCARSLARTTAMDYWGEGTLVTVSSASTKGPSVFPLAPSSKSTSGGTAALGCLVKDYFPEPVTVSWNSGALTSGVHTFPAVLQSSGLYSLSSVVTVPSSSLGTQTYICNVNHKPSNTKVDKKVEPKSCDKTHTCPPCPAPDYLGDDSVFLFPPKPKDTLMISRTPEVTCVVVDVSHEDPEVKFNWYVDGVEVHNAKTKPREEQDNSTYRVVSVLTVLHQDWLNGKEYKCKVSNAALPKPIEKTISKAKGQPREPQVYTLPPSRDELTKNQVSLTCLVKGFYPSDIAVEWESNGQPENNYKTTPPVLDSDGSFFLYSKLTVDKSRWQQGNVFSCSVMHEALHNHYTQESLSLSP
light: not shown
Kd [1]: 14 µM

B9: BP549 (antibody, human IgG1, kappa)
heavy: QVQLQESGPGLVKPSETLSLTCAVSGHSISHDHAWSWVRQPPGEGLEWIGFISYSGITNYNPSLQGRVTISRDNSKNTLYLQMNSLRAEDTAVYYCARSLARTTAMDYWGEGTLVTVSSASTKGPSVFPLAPSSKSTSGGTAALGCLVKDYFPEPVTVSWNSGALTSGVHTFPAVLQSSGLYSLSSVVTVPSSSLGTQTYICNVNHKPSNTKVDKKVEPKSCDKTHTCPPCPAPELLGDDSVFLFPPKPKDTLMISRTPEVTCVVVDVGEEDGEVKFNWYVDGVEVHNAKTKPREEQYNSTYRVVSVLTVLHQDWLNGKEYKCKVSNKALPRPIEKTISKAKGQPREPQVYTLPPSRDELTKNQVSLTCLVKGFYPSDIAVEWESNGQPENNYKTTPPVLDSDGSFFLYSKLTVDKSRWQQGNVFSCSVMHEALHNHYTQESLSLSP
light: not shown
Kd [4]: 1.8 µM
KD (IIaH)/KD (IIb) [7]: 696
KD (IIaR)/KD (IIb) [8]: 35.9

B10: IL6R-BP133/IL6R-L (antibody, human IgG1, kappa)
heavy: QVQLQESGPGLVKPSETLSLTCAVSGHSISHDHAWSWVRQPPGEGLEWIGFISYSGITNYNPSLQGRVTISRDNSKNTLYLQMNSLRAEDTAVYYCARSLARTTAMDYWGEGTLVTVSSASTKGPSVFPLAPSSKSTSGGTAALGCLVKDYFPEPVTVSWNSGALTSGVHTFPAVLQSSGLYSLSSVVTVPSSSLGTQTYICNVNHKPSNTKVDKKVEPKSCDKTHTCPPCPAPDYLGGDSVFLFPPKPKDTLMISRTPEVTCVVVDVSHEDPEVKFNWYVDGVEVHNAKTKPREEQYNSTYRVVSVLTVLHQDWLNGKEYKCKVSNKALPKPIEKTISKAKGQPREPQVYTLPPSRDELTKNQVSLTCLVKGFYPSDIAVEWESNGQPENNYKTTPPVLDSDGSFFLYSKLTVDKSRWQQGNVFSCSVMHEALHNHYTQESLSLSP
light: not shown
Kd [9]: 69 µM
